Reference: PMC11808123

Assays:
[1] = target: Recombinant CDK2 (human, full length), biotinylated (human) (UniProt P24941); test: BLI; no drug; conditions: domain or fragment
[2] = target: Recombinant CDK2 (human, full length), biotinylated (human) (UniProt P24941); test: BLI; with 100 nM INX-315; conditions: domain or fragment

**Q.** With “Recombinant cyclin A (human Cyclin A, residues 173-465)” as the substance, how does the Kd [1] read?
**A.** 0.57 nM

**Q.** And the koff [1]?
**A.** 0.00011 s⁻¹

**Q.** What about the Kd [2] of the same substance?
**A.** 0.24 nM

**Q.** And the koff [2]?
**A.** 5e-05 s⁻¹
